This note sets out measurements from IntAct's records for PubMed 29374201.

B1: Complement factor H (Homo sapiens), P08603-2 (parent)
chain: MRLLAKIICLMLWAICVAEDCNELPPRRNTEILTGSWSDQTYPEGTQAIYKCRPGYRSLGNVIMVCRKGEWVALNPLRKCQKRPCGHPGDTPFGTFTLTGGNVFEYGVKAVYTCNEGYQLLGEINYRECDTDGWTNDIPICEVVKCLPVTAPENGKIVSSAMEPDREYHFGQAVRFVCNSGYKIEGDEEMHCSDDGFWSKEKPKCVEISCKSPDVINGSPISQKIIYKENERFQYKCNMGYEYSERGDAVCTESGWRPLPSCEEKSCDNPYIPNGDYSPLRIKHRTGDEITYQCRNGFYPATRGNTAKCTSTGWIPAPRCTLKPCDYPDIKHGGLYHENMRRPYFPVAVGKYYSYYCDEHFETPSGSYWDHIHCTQDGWSPAVPCLRKCYFPYLENGYNQNYGRKFVQGKSIDVACHPGYALPKAQTTVTCMENGWSPTPRCIRVSFTL
partner: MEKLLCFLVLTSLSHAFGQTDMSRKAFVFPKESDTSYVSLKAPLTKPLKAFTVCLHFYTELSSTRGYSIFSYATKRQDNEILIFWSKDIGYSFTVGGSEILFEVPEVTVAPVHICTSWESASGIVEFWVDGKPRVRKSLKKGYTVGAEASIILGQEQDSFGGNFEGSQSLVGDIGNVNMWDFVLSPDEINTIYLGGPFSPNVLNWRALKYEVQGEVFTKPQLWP
B2: Complement factor H (Homo sapiens), P08603-2 (parent)
chain: B1 chain
B3: Complement factor H (Homo sapiens), P08603 (parent)
chain: MRLLAKIICLMLWAICVAEDCNELPPRRNTEILTGSWSDQTYPEGTQAIYKCRPGYRSLGNVIMVCRKGEWVALNPLRKCQKRPCGHPGDTPFGTFTLTGGNVFEYGVKAVYTCNEGYQLLGEINYRECDTDGWTNDIPICEVVKCLPVTAPENGKIVSSAMEPDREYHFGQAVRFVCNSGYKIEGDEEMHCSDDGFWSKEKPKCVEISCKSPDVINGSPISQKIIYKENERFQYKCNMGYEYSERGDAVCTESGWRPLPSCEEKSCDNPYIPNGDYSPLRIKHRTGDEITYQCRNGFYPATRGNTAKCTSTGWIPAPRCTLKPCDYPDIKHGGLYHENMRRPYFPVAVGKYYSYYCDEHFETPSGSYWDHIHCTQDGWSPAVPCLRKCYFPYLENGYNQNYGRKFVQGKSIDVACHPGYALPKAQTTVTCMENGWSPTPRCIRVKTCSKSSIDIENGFISESQYTYALKEKAKYQCKLGYVTADGETSGSITCGKDGWSAQPTCIKSCDIPVFMNARTKNDFTWFKLNDTLDYECHDGYESNTGSTTGSIVCGYNGWSDLPICYERECELPKIDVHLVPDRKKDQYKVGEVLKFSCKPGFTIVGPNSVQCYHFGLSPDLPICKEQVQSCGPPPELLNGNVKEKTKEEYGHSEVVEYYCNPRFLMKGPNKIQCVDGEWTTLPVCIVEESTCGDIPELEHGWAQLSSPPYYYGDSVEFNCSESFTMIGHRSITCIHGVWTQLPQCVAIDKLKKCKSSNLIILEEHLKNKKEFDHNSNIRYRCRGKEGWIHTVCINGRWDPEVNCSMAQIQLCPPPPQIPNSHNMTTTLNYRDGEKVSVLCQENYLIQEGEEITCKDGRWQSIPLCVEKIPCSQPPQIEHGTINSSRSSQESYAHGTKLSYTCEGGFRISEENETTCYMGKWSSPPQCEGLPCKSPPEISHGVVAHMSDSYQYGEEVTYKCFEGFGIDGPAIAKCLGEKWSHPPSCIKTDCLSLPSFENAIPMGEKKDVYKAGEQVTYTCATYYKMDGASNVTCINSRWTGRPTCRDTSCVNPPTVQNAYIVSRQMSKYPSGERVRYQCRSPYEMFGDEEVMCLNGNWTEPPQCKDSTGKCGPPPPIDNGDITSFPLSVYAPASSVEYQCQNLYQLEGNKRITCRNGQWSEPPKCLHPCVISREIMENYNIALRWTAKQKLYSRTGESVEFVCKRGYRLSSRSHTLRTTCWDGKLEYPTCAKR
partner: B1 partner

The variants in one assay derive from B1. The following applies: with crp_human CRP.
On to Y402H, for which the “effect of a mutation on the interaction” value is reported as “decreasing interaction strength”.

In a further assay the parent is B2. To be noted: with ptx3_human PTX3, P26022.
ptx3_human PTX3, P26022, sequence (P26022 whole entry): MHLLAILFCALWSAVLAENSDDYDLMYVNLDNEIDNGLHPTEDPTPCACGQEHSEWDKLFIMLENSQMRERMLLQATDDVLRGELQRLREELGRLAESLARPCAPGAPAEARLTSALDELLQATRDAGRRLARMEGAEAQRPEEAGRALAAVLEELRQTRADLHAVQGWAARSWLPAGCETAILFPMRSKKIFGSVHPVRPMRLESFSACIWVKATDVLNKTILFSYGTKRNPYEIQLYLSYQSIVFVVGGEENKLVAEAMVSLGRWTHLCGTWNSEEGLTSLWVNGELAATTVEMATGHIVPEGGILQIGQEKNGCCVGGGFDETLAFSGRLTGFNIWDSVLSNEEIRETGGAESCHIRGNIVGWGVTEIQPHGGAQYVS
Y402H: the “effect of a mutation on the interaction” value is on record as “disrupting interaction strength”.

The variants in the next assay derive from B2. The following applies: with ptx3_human PTX3, P26022. This is another data set of the same source.
For the variant Y402H, the “effect of a mutation on the interaction” value is “decreasing interaction strength”.

Variants of B3 are the subject of the next assay. The following applies: with crp_human CRP.
In the case of Y402H, the “effect of a mutation on the interaction” value is given as “decreasing interaction strength”.
